Assay results reported in patent US8765433B2, “Alcohol dehydrogenases (ADH) useful for fermentive production of lower alkyl alcohols” (priority 2009, dated 2014).

Tested on: CC(C)C=O
Assay: isobutyraldehyde reduction kinetics (A340, initial rates)
Format: biochemical, Mucor circinelloides
Conditions: other: 30° C., pH 7.0, NADH specific
Excerpt: This example describes preparation of ADH-gene constructs for over-expression/purification and measurement of enzyme activities using a time-course assay. Horse-liver ADH (HLADH; A-6128) was purchased from Sigma. Achromobacter xylosoxidans SadB (SadB), Saccharomyces cerevisiae ADH6 (ScADH6) and ADH7 (ScADH7), Entamoeba histolytica ADH1 (EhADH1), Bos Taurus Aldehyde Reductase (BtARD), Beijerinckia indica subsp. Indica ATCC 9039 (BiADH), Clostridium beijerinckii ADH (CbADH), Rana perezi ADH8 (RpADH8), Rattus norvegicus ADH1 (RnADH1), Thermus sp. ATN1 ADH (TADH), Phenylobacterium zucineum HLK1 ADH (PzADH), Methylocella silvestris BL2 ADH (MsADH), Acinetobacter baumannii AYE ADH (AbADH), Geobacillus sp. WCH70 ADH (GbADH), Vanderwaltozyma polyspora DSM 70294 ADH (VpADH), Mucor circinelloides ADH (McADH), and Rhodococcus erythropolis PR4ADH (ReADH) were the candidates for which subclones were prepared for protein expression and purification.
As a routine practice, the crude extracts and purified proteins were assayed for butanol oxidation activity, in order to ensure that the recombinant proteins were active throughout the purification process. […] Alcohol oxidation activities were carried out in 50 mM sodium phosphate buffer at pH 8.8 and aldehyde reduction reactions were assayed in 190 mM potassium phosphate buffer at pH 7.0. […]
Kinetic constants of the ADH enzymes were calculated and compared to identify those candidate ADH enzymes with the most desirable properties for the conversion of isobutyraldehyde to isobutanol in the last step of the engineered pathway for isobutanol production. […] The kcat/KM is derived from the individual numbers of kcat and KM and not an experimentally determined value. […]
Seven additional candidate ADH enzymes were synthesized, expressed, and assayed according to methods such as described in Example 2. […] A comparison of KM, KI, and kcat/KM for each candidate enzyme as compared to the same parameter for SadB are given in Table 9 as a percentage of the values determined (Table 7) for SadB. […]

Substance: Mucor circinelloides ADH (McADH), SEQ ID NO: 39 (Mucor circinelloides)
- Km: 30 mM
- kcat: 151 s⁻¹
- kcat/Km: 5000 M⁻¹ s⁻¹
